Paper PMC11574045, “A cofactor-induced repressive type of transcription factor condensation can be induced by synthetic peptides to suppress tumorigenesis” (The EMBO Journal, 2024)

B1: NKX2-8 (protein, UniProt O15522 1-239, looked up)
Homeobox protein Nkx-2.8: MATSGRLSFTVRSLLDLPEQDAQHLPRREPEPRAPQPDPCAAWLDSERGHYPSSDESSLETSPPDSSQRPSARPASPGSDAEKRKKRRVLFSKAQTLELERRFRQQRYLSAPEREQLASLLRLTPTQVKIWFQNHRYKLKRARAPGAAESPDLAASAELHAAPGLLRRVVVPVLVRDGQPCGGGGGGEVGTAAAQEKCGAPPAAACPLPGYPAFGPGSALGLFPAYQHLASPALVSWNW
B2: NPM2 (protein, UniProt Q86SE8 1-214, looked up)
Nucleoplasmin-2: MNLSSASSTEEKAVTTVLWGCELSQERRTWTFRPQLEGKQSCRLLLHTICLGEKAKEEMHRVEILPPANQEDKKMQPVTIASLQASVLPMVSMVGVQLSPPVTFQLRAGSGPVFLSGQERYEASDLTWEEEEEEEGEEEEEEEEDDEDEDADISLEEQSPVKQVKRLVPQKQASVAKKKKLEKEEEEIRASVRDKSPVKKAKATARAKKPGFKK
B3: NKX6-2 (protein, UniProt Q9C056 1-277, looked up)
Homeobox protein Nkx-6.2: MDTNRPGAFVLSSAPLAALHNMAEMKTSLFPYALQGPAGFKAPALGGLGAQLPLGTPHGISDILGRPVGAAGGGLLGGLPRLNGLASSAGVYFGPAAAVARGYPKPLAELPGRPPIFWPGVVQGAPWRDPRLAGPAPAGGVLDKDGKKKHSRPTFSGQQIFALEKTFEQTKYLAGPERARLAYSLGMTESQVKVWFQNRRTKWRKRHAVEMASAKKKQDSDAEKLKVGGSDAEDDDEYNRPLDPNSDDEKITRLLKKHKPSNLALVSPCGGGAGDAL
B4: NFX1 (protein, UniProt Q12986 1-1120, looked up)
Transcriptional repressor …: MAEAPPVSGTFKFNTDAAEFIPQEKKNSGLNCGTQRRLDSNRIGRRNYSSPPPCHLSRQVPYDEISAVHQHSYHPSGSKPKSQQTSFQSSPCNKSPKSHGLQNQPWQKLRNEKHHIRVKKAQSLAEQTSDTAGLESSTRSESGTDLREHSPSESEKEVVGADPRGAKPKKATQFVYSYGRGPKVKGKLKCEWSNRTTPKPEDAGPESTKPVGVFHPDSSEASSRKGVLDGYGARRNEQRRYPQKRPPWEVEGARPRPGRNPPKQEGHRHTNAGHRNNMGPIPKDDLNERPAKSTCDSENLAVINKSSRRVDQEKCTVRRQDPQVVSPFSRGKQNHVLKNVETHTGSLIEQLTTEKYECMVCCELVRVTAPVWSCQSCYHVFHLNCIKKWARSPASQADGQSGWRCPACQNVSAHVPNTYTCFCGKVKNPEWSRNEIPHSCGEVCRKKQPGQDCPHSCNLLCHPGPCPPCPAFMTKTCECGRTRHTVRCGQAVSVHCSNPCENILNCGQHQCAELCHGGQCQPCQIILNQVCYCGSTSRDVLCGTDVGKSDGFGDFSCLKICGKDLKCGNHTCSQVCHPQPCQQCPRLPQLVRCCPCGQTPLSQLLELGSSSRKTCMDPVPSCGKVCGKPLPCGSLDFIHTCEKLCHEGDCGPCSRTSVISCRCSFRTKELPCTSLKSEDATFMCDKRCNKKRLCGRHKCNEICCVDKEHKCPLICGRKLRCGLHRCEEPCHRGNCQTCWQASFDELTCHCGASVIYPPVPCGTRPPECTQTCARVHECDHPVYHSCHSEEKCPPCTFLTQKWCMGKHEFRSNIPCHLVDISCGLPCSATLPCGMHKCQRLCHKGECLVDEPCKQPCTTPRADCGHPCMAPCHTSSPCPVTACKAKVELQCECGRRKEMVICSEASSTYQRIAAISMASKITDMQLGGSVEISKLITKKEVHQARLECDEECSALERKKRLAEAFHISEDSDPFNIRSSGSKFSDSLKEDARKDLKFVSDVEKEMETLVEAVNKGKNSKKSHSFPPMNRDHRRIIHDLAQVYGLESVSYDSEPKRNVVVTAIRGKSVCPPTTLTGVLEREMQARPPPPIPHHRHQSDKNPGSSNLQKITKEPIIDYFDVQD
B5: NFYB (protein, UniProt P25208 1-207, looked up)
Nuclear transcription factor …: MTMDGDSSTTDASQLGISADYIGGSHYVIQPHDDTEDSMNDHEDTNGSKESFREQDIYLPIANVARIMKNAIPQTGKIAKDAKECVQECVSEFISFITSEASERCHQEKRKTINGEDILFAMSTLGFDSYVEPLKLYLQKFREAMKGEKGIGGAVTATDGLSEELTEEAFTNQLPAGLITTDGQQQNVMVYTTSYQQISGVQQIQFS
B6: NF-YB (protein, UniProt P25208 1-207, looked up)
Nuclear transcription factor …: B5 Nuclear transcription factor …
B7: NR1H2/LXRB (protein, UniProt P55055 1-460, looked up)
Oxysterols receptor LXR-beta: MSSPTTSSLDTPLPGNGPPQPGAPSSSPTVKEEGPEPWPGGPDPDVPGTDEASSACSTDWVIPDPEEEPERKRKKGPAPKMLGHELCRVCGDKASGFHYNVLSCEGCKGFFRRSVVRGGARRYACRGGGTCQMDAFMRRKCQQCRLRKCKEAGMREQCVLSEEQIRKKKIRKQQQESQSQSQSPVGPQGSSSSASGPGASPGGSEAGSQGSGEGEGVQLTAAQELMIQQLVAAQLQCNKRSFSDQPKVTPWPLGADPQSRDARQQRFAHFTELAIISVQEIVDFAKQVPGFLQLGREDQIALLKASTIEIMLLETARRYNHETECITFLKDFTYSKDDFHRAGLQVEFINPIFEFSRAMRRLGLDDAEYALLIAINIFSADRPNVQEPGRVEALQQPYVEALLSYTRIKRPQDQLRFPRMLMKLVSLRTLSSVHSEQVFALRLQDKKLPPLLSEIWDVHE
B8: NKX6-3 (protein, UniProt A6NJ46 1-265, looked up)
Homeobox protein Nkx-6.3: MESNLQGTFLLNNTPLAQFPEMKAPVCQYSVQNSFYKLSPPGLGPQLAAGTPHGITDILSRPVAAPNNSLLSGYPHVAGFGGLSSQGVYYSPQVGNFSKAGNEYPTRTRNCWADTGQDWRGGRQCSNTPDPLSDSIHKKKHTRPTFTGHQIFALEKTFEQTKYLAGPERARLAYSLGMTESQVKVWFQNRRTKWRKKSALEPSSSTPRAPGGAGAGAGGDRAPSENEDDEYNKPLDPDSDDEKIRLLLRKHRAAFSVLSLGAHSV
B9: NR1F3/RORC (protein, UniProt P51449 1-518, looked up)
Nuclear receptor ROR-gamma: MDRAPQRQHRASRELLAAKKTHTSQIEVIPCKICGDKSSGIHYGVITCEGCKGFFRRSQRCNAAYSCTRQQNCPIDRTSRNRCQHCRLQKCLALGMSRDAVKFGRMSKKQRDSLHAEVQKQLQQRQQQQQEPVVKTPPAGAQGADTLTYTLGLPDGQLPLGSSPDLPEASACPPGLLKASGSGPSYSNNLAKAGLNGASCHLEYSPERGKAEGRESFYSTGSQLTPDRCGLRFEEHRHPGLGELGQGPDSYGSPSFRSTPEAPYASLTEIEHLVQSVCKSYRETCQLRLEDLLRQRSNIFSREEVTGYQRKSMWEMWERCAHHLTEAIQYVVEFAKRLSGFMELCQNDQIVLLKAGAMEVVLVRMCRAYNADNRTVFFEGKYGGMELFRALGCSELISSIFDFSHSLSALHFSEDEIALYTALVLINAHRPGLQEKRKVEQLQYNLELAFHHHLCKTHRQSILAKLPPKGKLRSLCSQHVERLQIFQHLHPIVVQAAFPPLYKELFSTETESPVGLSK
B10: NKX2.5 (protein, UniProt P52952 1-324, looked up)
Homeobox protein Nkx-2.5: MFPSPALTPTPFSVKDILNLEQQQRSLAAAGELSARLEATLAPSSCMLAAFKPEAYAGPEAAAPGLPELRAELGRAPSPAKCASAFPAAPAFYPRAYSDPDPAKDPRAEKKELCALQKAVELEKTEADNAERPRARRRRKPRVLFSQAQVYELERRFKQQRYLSAPERDQLASVLKLTSTQVKIWFQNRRYKCKRQRQDQTLELVGLPPPPPPPARRIAVPVLVRDGKPCLGDSAPYAPAYGVGLNPYGYNAYPAYPGYGGAACSPGYSCTAAYPAGPSPAQPATAAANNNFVNFGVGDLNAVQSPGIPQSNSGVSTLHGIRAW
B11: ATF3 (protein, UniProt P18847 1-181, looked up)
Cyclic AMP-dependent …: MMLQHPGQVSASEVSASAIVPCLSPPGSLVFEDFANLTPFVKEELRFAIQNKHLCHRMSSALESVTVSDRPLGVSITKAEVAPEEDERKKRRRERNKIAAAKCRNKKKEKTECLQKESEKLESVNAELKAQIEELKNEKQHLIYMLNLHRPTCIVRAQNGRTPEDERNLFIQQIKEGTLQS
B12: NR0B1/DAX1 (protein, UniProt P51843 1-470, looked up)
Nuclear receptor subfamily 0 …: MAGENHQWQGSILYNMLMSAKQTRAAPEAPETRLVDQCWGCSCGDEPGVGREGLLGGRNVALLYRCCFCGKDHPRQGSILYSMLTSAKQTYAAPKAPEATLGPCWGCSCGSDPGVGRAGLPGGRPVALLYRCCFCGEDHPRQGSILYSLLTSSKQTHVAPAAPEARPGGAWWDRSYFAQRPGGKEALPGGRATALLYRCCFCGEDHPQQGSTLYCVPTSTNQAQAAPEERPRAPWWDTSSGALRPVALKSPQVVCEAASAGLLKTLRFVKYLPCFQVLPLDQQLVLVRNCWASLLMLELAQDRLQFETVEVSEPSMLQKILTTRRRETGGNEPLPVPTLQHHLAPPAEARKVPSASQVQAIKCFLSKCWSLNISTKEYAYLKGTVLFNPDVPGLQCVKYIQGLQWGTQQILSEHTRMTHQGPHDRFIELNSTLFLLRFINANVIAELFFRPIIGTVSMDDMMLEMLCTKI
B13: NKX2-6 (protein, UniProt A6NCS4 1-301, looked up)
Homeobox protein Nkx-2.6: MLLSPVTSTPFSVKDILRLERERSCPAASPHPRVRKSPENFQYLRMDAEPRGSEVHNAGGGGGDRKLDGSEPPGGPCEAVLEMDAERMGEPQPGLNAASPLGGGTRVPERGVGNSGDSVRGGRSEQPKARQRRKPRVLFSQAQVLALERRFKQQRYLSAPEREHLASALQLTSTQVKIWFQNRRYKCKRQRQDKSLELAGHPLTPRRVAVPVLVRDGKPCLGPGPGAPAFPSPYSAAVSPYSCYGGYSGAPYGAGYGTCYAGAPSGPAPHTPLASAGFGHGGQNATPQGHLAATLQGVRAW
B14: NR0B2/SHP (protein, UniProt Q15466 1-257, looked up)
Nuclear receptor subfamily 0 …: MSTSQPGACPCQGAASRPAILYALLSSSLKAVPRPRSRCLCRQHRPVQLCAPHRTCREALDVLAKTVAFLRNLPSFWQLPPQDQRRLLQGCWGPLFLLGLAQDAVTFEVAEAPVPSILKKILLEEPSSSGGSGQLPDRPQPSLAAVQWLQCCLESFWSLELSPKEYACLKGTILFNPDVPGLQAASHIGHLQQEAHWVLCEVLEPWCPAAQGRLTRVLLTASTLKSIPTSLLGDLFFRPIIGDVDIAGLLGDMLLLR
B15: NKX2-2 (protein, UniProt O95096 1-273, looked up)
Homeobox protein Nkx-2.2: MSLTNTKTGFSVKDILDLPDTNDEEGSVAEGPEEENEGPEPAKRAGPLGQGALDAVQSLPLKNPFYDSSDNPYTRWLASTEGLQYSLHGLAAGAPPQDSSSKSPEPSADESPDNDKETPGGGGDAGKKRKRRVLFSKAQTYELERRFRQQRYLSAPEREHLASLIRLTPTQVKIWFQNHRYKMKRARAEKGMEVTPLPSPRRVAVPVLVRDGKPCHALKAQDLAAATFQAGIPFSAYSAQSLQHMQYNAQYSSASTPQYPTAHPLVQAQQWTW

Tested on: HEK293FT cells transfected with TF library
Experiment: Screening of TF condensates based on fluorescent puncta
Assay type: cell-based
Settings: Figure 1B numerical data; TF library screen, one value per transcriptional factor
Procedure, shortened: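 Puncta scoring used automated confocal imaging of fifty random fields per well, after anti-Flag or anti-GAL4 immunofluorescence (Alexa 488) in PFA-fixed cells. HEK293FT cells carried TF library plasmids delivered with PEI (1.6 μg/ml DNA). At 60 h they were switched for 12 h to glucose-containing or glucose-free medium.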

Row | Molecule | Z score of condensed fraction
1 | B1 | -0.6353
2 | B2 | 1.0628
3 | B3 | -0.6325
4 | B4 | -0.8733
5 | B5 | 0.9401
6 | B6 | 0.001922
7 | B7 | 0.2806
8 | B8 | -0.571
9 | B9 | 0.1658
10 | B10 | -0.3246
11 | B11 | -0.2156
12 | B12 | -0.574
13 | B13 | -0.7176
14 | B14 | -0.8477
15 | B15 | -0.1567
